Results from US20060239990.

Biological target: GST-Stat3 fusion protein (UniProt P42227)
Sequence (P42227 whole entry, the tested form may be a part): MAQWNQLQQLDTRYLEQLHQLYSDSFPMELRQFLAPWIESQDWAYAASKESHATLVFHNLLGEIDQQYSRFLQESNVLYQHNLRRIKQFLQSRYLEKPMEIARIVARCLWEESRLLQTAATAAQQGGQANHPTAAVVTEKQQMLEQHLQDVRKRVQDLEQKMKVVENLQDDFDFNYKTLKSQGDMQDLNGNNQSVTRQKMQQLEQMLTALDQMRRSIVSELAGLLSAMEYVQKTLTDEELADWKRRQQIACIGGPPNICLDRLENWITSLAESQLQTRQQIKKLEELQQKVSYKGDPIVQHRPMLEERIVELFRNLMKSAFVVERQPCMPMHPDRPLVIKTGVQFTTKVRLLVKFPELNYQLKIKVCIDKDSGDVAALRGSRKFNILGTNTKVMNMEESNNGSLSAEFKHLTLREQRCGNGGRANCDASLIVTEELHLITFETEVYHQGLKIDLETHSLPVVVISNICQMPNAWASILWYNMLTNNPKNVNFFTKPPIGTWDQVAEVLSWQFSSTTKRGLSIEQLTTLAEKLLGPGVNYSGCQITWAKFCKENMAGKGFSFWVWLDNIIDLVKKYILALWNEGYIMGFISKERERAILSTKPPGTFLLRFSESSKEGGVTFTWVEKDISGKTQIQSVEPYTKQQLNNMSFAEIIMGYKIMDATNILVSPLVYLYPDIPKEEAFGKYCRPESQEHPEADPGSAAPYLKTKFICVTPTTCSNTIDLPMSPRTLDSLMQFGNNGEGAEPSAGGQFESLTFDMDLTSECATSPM

**Q.** “mutated mouse PRMT2-Flag lacking functional Ado-Met domain (alanine for 145-GCGTG-149)” was tested. Which “in vitro methylation with [3H]-AdoMet” value did it give?
**A.** Its value is “transfection of neither vector alone nor mutated PRMT2-Flag cDNA induced methylation of GST-Stat3 (FIG. 20A, lanes 4 and 5)”.
